In this test the target is T1, (H3–H4)2 tetramer (Xenopus laevis, UniProt P84233 1-136; P62799 1-103, H4 E63C, Alexa 488 maleimide on C63 (H4 E63C)).
T1 construct: Histone H3, Xenopus laevis; also called H3–H4 tetramer; H3–H4 complex; copies: 2 + 2
As to the kind of experiment: other fluorescence titration; Arp constructs or sub-complex titrated (1 to 5000 nM) into fluorescently labelled histone complexes or nucleosomes kept at 0.5-1 nM, 40 µl in microplates; 20 mM Tris pH 7.5, 150 mM KCl, 5% glycerol, 1 mM TCEP, 0.01% CHAPS, 0.01% octylglucoside; room temperature, 20-30 min; apparent Kd and Hill coefficient from non-linear fit; quadruplicates. To be noted: both partners purified.

B1: Saccharomyces cerevisiae Arp8 (natural protein)
chain: MSQEEAESSIIYEEPIDIPLEDDDDEDELEEENSVPLSSQADQENAENESDDSVDNVVGSETPRSVTGLSVDPRDVADEEDEDEEGEDEDEDEDDNDVDNEDENDNDNANENENELGSSRDKRAPPAVQTSKRYKKYPKLDPAKAPPGKKVPLHLLEKRRLGRIKAAEEFAKTLKKIGIEKVETTTLPATGLFQPLMLINQKNYSSDYLKKDDQIFALRDRKFLRNNNTSQISSTNTPDVIDLKSLPHSEASAAPLNDEIDLNDPTATIVIHPGSNSIKIGFPKDDHPVVVPNCVAVPKKWLDLENSEHVENVCLQREQSEEFNNIKSEMEKNFRERMRYYKRKVPGNAHEQVVSFNENSKPEIISEKNDPSPIEWIFDDSKLYYGSDALRCVDEKFVIRKPFRGGSFNVKSPYYKSLAELISDVTKLLEHALNSETLNVKPTKFNQYKVVLVIPDIFKKSHVETFIRVLLTELQFQAVAIIQESLATCYGAGISTSTCVVNIGAAETRIACVDEGTVLEHSAITLDYGGDDITRLFALFLLQSDFPLQDWKIDSKHGWLLAERLKKNFTTFQDADVAVQLYNFMNRSPNQPTEKYEFKLFDEVMLAPLALFFPQIFKLIRTSSHKNSSLEFQLPESRDLFTNELNDWNSLSQFESKEGNLYCDLNDDLKILNRILDAHNIIDQLQDKPENYGNTLKENFAPLEKAIVQSIANASITADVTRMNSFYSNILIVGGSSKIPALDFILTDRINIWRPSLLSSASFPQFYKKLTKEIKDLEGHYVNAPDKTEDENKQILQAQIKEKIVEELEEQHQNIEHQNGNEHIFPVSIIPPPRDMNPALIIWKGASVLAQIKLVEELFITNSDWDVHGSRILQYKCIFTY
notes: Actin-related protein 8 (Arp8), S. cerevisiae; also called Sc Arp8; yeast Arp8
As for B1, the Kd was 485 nM.

B2: Saccharomyces cerevisiae Arp4 (natural protein)
chain: MSNAALQVYGGDEVSAVVIDPGSYTTNIGYSGSDFPQSILPSVYGKYTADEGNKKIFSEQSIGIPRKDYELKPIIENGLVIDWDTAQEQWQWALQNELYLNSNSGIPALLTEPVWNSTENRKKSLEVLLEGMQFEACYLAPTSTCVSFAAGRPNCLVVDIGHDTCSVSPIVDGMTLSKSTRRNFIAGKFINHLIKKALEPKEIIPLFAIKQRKPEFIKKTFDYEVDKSLYDYANNRGFFQECKETLCHICPTKTLEETKTELSSTAKRSIESPWNEEIVFDNETRYGFAEELFLPKEDDIPANWPRSNSGVVKTWRNDYVPLKRTKPSGVNKSDKKVTPTEEKEQEAVSKSTSPAANSADTPNETGKRPLEEEKPPKENNELIGLADLVYSSIMSSDVDLRATLAHNVVLTGGTSSIPGLSDRLMTELNKILPSLKFRILTTGHTIERQYQSWLGGSILTSLGTFHQLWVGKKEYEEVGVERLLNDRFR
notes: Actin-related protein 4 (Arp4), S. cerevisiae; also called Sc Arp4; yeast Arp4
Consider B2, for which the Kd came out at 74.3 nM.

Values taken from publication PMC3510490 (Nucleic Acids Research, 2012).
